Test results published in patent US20200030425 (published 2020).
Values joined by “and” are separate entries in the source; they are usually repeats but may differ in a detail not shown here. Equal values may be shown once.

Target: T1, human ICOS-Fc (human)
T1 chain: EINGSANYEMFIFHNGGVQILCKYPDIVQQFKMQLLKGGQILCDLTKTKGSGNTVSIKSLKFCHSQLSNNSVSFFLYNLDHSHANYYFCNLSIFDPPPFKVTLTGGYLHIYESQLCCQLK
Experiment: SPR 37C

Kd: 52 nM and 65 nM
B1: ICOS.33 IgG1f S267E Fab (antibody, V domains shown)
VH: EVQLVESGGGLVKPGGSLRLSCAASGFTFSDYFMHWVRQAPGKGLEWVGVIDTKSFNYATYYSDLVKGRFTISRDDSKNTLYLQMNSLKTEDTAVYYCTATIAVPYYFDYWGQGTLVTVSS
VL: DIQMTQSPSSLSASVGDRVTITCQASQDISNYLSWYQQKPGKAPKLLIYYTNLLAEGVPSRFSGSGSGTDFTFTISSLQPEDIATYYCQQYYNYRTFGPGTKVDIK
